Reference: patent publication US20250282868A1 (ITEOS BELGIUM, published 2025)

T1: mouse TREM2 (mouse, UniProt Q99NH8 19-227)
T1 construct: whole, on cells
T1 sequence (looked up): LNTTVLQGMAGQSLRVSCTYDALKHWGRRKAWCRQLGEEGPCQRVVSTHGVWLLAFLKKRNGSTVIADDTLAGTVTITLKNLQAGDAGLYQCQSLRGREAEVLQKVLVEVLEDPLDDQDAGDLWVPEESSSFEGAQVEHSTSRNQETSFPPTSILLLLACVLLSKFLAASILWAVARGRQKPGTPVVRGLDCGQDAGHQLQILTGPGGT

T2: human TREM2 (human, UniProt Q9NZC2 19-230)
T2 construct: on THP-1 WT cells and M2a-like macrophages (endogenous) and on CHO or HEK293T cells overexpressing human TREM2 with DAP12; also called hTREM2
T2 sequence: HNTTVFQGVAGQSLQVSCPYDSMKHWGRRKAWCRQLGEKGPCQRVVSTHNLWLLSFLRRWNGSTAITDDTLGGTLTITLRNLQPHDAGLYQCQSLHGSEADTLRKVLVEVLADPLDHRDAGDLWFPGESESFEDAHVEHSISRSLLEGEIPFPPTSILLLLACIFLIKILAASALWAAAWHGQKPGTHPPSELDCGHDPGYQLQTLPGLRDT

T3: cynomolgus TREM2 (cynomolgus, UniProt A0A2K5UY34 49-260)
T3 construct: also called cynoTREM2; cTREM2
T3 sequence: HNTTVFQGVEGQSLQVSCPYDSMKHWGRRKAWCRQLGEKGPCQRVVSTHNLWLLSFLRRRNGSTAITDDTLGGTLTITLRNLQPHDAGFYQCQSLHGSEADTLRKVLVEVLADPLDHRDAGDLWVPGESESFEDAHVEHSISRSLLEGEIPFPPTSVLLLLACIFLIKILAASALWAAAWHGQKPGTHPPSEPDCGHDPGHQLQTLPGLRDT


What was measured:
mouse TREM2 [1] = target: T1, mouse TREM2; assay: MFI on CT26 cells over-expressing mouse TREM2 and DAP12
Method: (§1) Cross-reactivity to mouse TREM2 was assessed using CT26 cells over-expressing mouse TREM2 and DAP12 (Table 23). Eight anti-TREM2 antibodies and both benchmark antibodies were considered cross-reactive to mouse TREM2 (MFI higher than isotype control and fold change of CT26-TREM2 over the CT26 Empty Vector higher than 5). The remaining anti-TREM2 antibodies were considered as being low to not cross-reactive (fold change less than 5). EOS006171 was not tested due to clear non-cross-reactivity preliminary data by octet (data not shown).

mouse TREM2 [2] = target: T1, mouse TREM2; assay: MFI on CT26 cells over-expressing mouse TREM2 and DAP12; column 'Considered cross-reactive'
Method: as §1

human TREM2 [3] = target: T2, human TREM2; assay: flow cytometry, THP-1 WT cells, 10 ug/ml
Method: (§2) In order to test specificity of selected antibodies to TREM2, binding was tested by flow cytometry on THP-1 TREM2 KO (clone, produced using CRISPR technology in house) and on THP-1 WT. Cells were incubated with selected anti-TREM2 antibodies (final concentration of 10 μg/ml) for 30 min at 4° C. After washing, bound antibodies were detected with a secondary anti-human IgG Fc PE-labelled for 30 min at 4° C. Fluorescence intensity was measured by flow cytometry.

cynomolgus TREM2 [4] = target: T3, cynomolgus TREM2; assay: MFI on CHO cells over-expressing cynoTREM2-DAP12 vs CHO empty vector
Method: (§3) Cross-reactivity of anti-TREM2 antibodies to cynomolgus TREM2 (cynoTREM2) was assessed using CHO over-expressing cynoTREM2-DAP12 (Table 22). Benchmark antibodies, AB52 and PN-37012, were examined for comparison.

human TREM2 [5] = target: T2, human TREM2; assay: flow cytometry, M2a-like macrophages
Method: (§4) M2a-like macrophages were produced in vitro from monocytes of healthy donors. Briefly, after PBMCs isolation from peripheral blood using Lymphoprep™ gradient, CD14+ cells were purified and seeded in presence of MCSF 50 ng/ml for 6 days. Macrophages were then cultured with IL-13 and IL-4 at a concentration of 20 ng/ml for two additional days and then used for a cell-based binding assay.
(§5) M2a-like macrophages were incubated with anti-TREM2 antibodies (dose-response curve with 11 concentrations from 10 μg/ml to 0.0001 μg/ml) for 30 min at 4° C. After washing, bound antibodies were detected with a secondary anti-human IgG Fc PE-labelled for 30 min at 4° C. Fluorescence intensity was measured by flow cytometry. Equilibrium dissociation constant (kD) was then calculated for each antibody using median MFI normalized over isotype control.

mouse TREM2 [6] = target: T1, mouse TREM2; assay: MFI on CT26 cells over-expressing mouse TREM2 and DAP12 vs CT26 empty vector
Method: as §1

human TREM2 [7] = target: T2, human TREM2; assay: cell-based or functional assay
cynomolgus TREM2 [8] = target: T3, cynomolgus TREM2; assay: MFI on CHO cells over-expressing cynoTREM2-DAP12
Method: as §3

human TREM2 [9] = target: T2, human TREM2; assay: flow cytometry, THP-1 WT vs THP-1 TREM2 KO cells, 10 ug/ml
Method: as §2

human TREM2 [10] = target: T2, human TREM2; assay: cell-based or functional assay; remark: listed apart in the source
human TREM2 [11] = target: T2, human TREM2; assay: flow cytometry, competition with LDL-Alexafluor-488 on CHO cells overexpressing human TREM2/DAP12
Method: (§6) Exemplary anti-TREM2 antibodies were tested in order to characterize their ability to enter in competition with TREM2 ligand, LDL, on CHO overexpressing human TREM2/DAP12. Antibodies (dose response curves from 66.65 nM to 0.07 nM) were incubated for 30 min with cells in a soluble fashion, followed by an incubation with LDL coupled with Alexafluor-488 (at 1 μg/mL final) for 30 min. Finally, after 2 washes, cells were acquired on flow cytometer. The median MFI of Alexafluor-488 was used to plot the graphs. Benchmark antibody MOR044746 was used as positive control.

human TREM2 [12] = target: T2, human TREM2; assay: flow cytometry, M2a-like macrophages, dose-response
Method: as §4, §5

human TREM2 [13] = target: T2, human TREM2; assay: flow cytometry, competition with LDL-Alexafluor-488 on CHO cells overexpressing human TREM2/DAP12; only 1 value generated
Method: as §6

| Binding to CT26-TREM2 MFI (mouse TREM2 [1]) [MFI] | Fold over isotype control THP1 WT (human TREM2 [3]) [fold] | MFI Fold change (CHO-cTREM2 over CHO-EV) (cynomolgus TREM2 [4]) [fold] | Fold over isotype (human TREM2 [5]) [fold] | MFI Fold change (CT26-TREM2 over CT26-EV) (mouse TREM2 [6]) [fold] | Stabilization ratio (Mean of 2 replicates) (human TREM2 [7]) [ratio] | Binding to CHO-cTREM2 MFI (cynomolgus TREM2 [8]) [MFI] | MFI Fold change (THP-1 WT over THP-1 TREM2 KO) (human TREM2 [9]) [fold] | Fold over isotype control at 66 nM (human TREM2 [10]) [fold] | IC50 (human TREM2 [11]) [pM] | Kd (human TREM2 [12]) [pM] | IC50 (human TREM2 [13]) [pM] | pSYK/TotSYK EC50 (nM) (human TREM2 [10]) | Binder | binding result (mouse TREM2 [2]) |
| --- | --- | --- | --- | --- | --- | --- | --- | --- | --- | --- | --- | --- | --- | --- |
| 649 | 1.7 | 189 | 2.2 | 2.3 | 0.54 | 8500 | 2.5 | 1.03 | 5290 | 410 | – | – | EOS006165 (antibody, V domains shown) VH: QVQLVQSGAEVKKPGSSVKVSCKASGGTFSSYAISWVRQAPGQGLEWMGGIIPISGTANYAQKFQGRVTITADESTSTAYMELSSLRSEDTAVYYCARTQEYTAFDIWGQGTMVTVSS VL: EIVLTQSPATLSLSPGERATLSCRASQSVSSYLAWFQQKPGQAPRLLIYDASNRATGIPARFSGSGSGTDFTLTISSLEPEDFAVYYCQQDYHWPITFGGGTKVEIK | no binding (tested: fold change less than 5) |
| 1660 | 8.7 | 418 | 9.8 | 4.9 | 0.46 | 17200 | 8.9 | 0.59 | 115 | 90 | – | – | EOS006172 (antibody, V domains shown) VH: QVQLVQSGAEVKKPGSSVKVSCKASGGTFSSYAISWVRQAPGQGLEWMGGIIPISGTANYAQKFQGRVTITADESTSTAYMELSSLRSEDTAVYYCARTQEYTLFDIWGQGTMVTVSS VL: EIVLTQSPATLSLSPGERATLSCRASQSVSSYLAWFQQKPGQAPRLLIYDASNRATGIPARFSGSGSGTDFTLTISSLEPEDFAVYYCQQDFHWPITFGGGTKVEIK | no binding (tested: fold change less than 5) |
| – | – | – | – | – | – | – | – | 0.267 | – | – | 138 | – | EOS004283 (antibody, human IgG1, kappa, V domains shown) VH: QVQLVQSGAEVKKPGSSVKVSCKASGGTFAQYAISWVRQAPGQGLEWMGVIIPDSGTANYAQKFQGRVTITADESTSTAYMELSSLRSEDTAVYYCARTQENTIFDIWGQGTLVTVSS VL: EIVLTQSPATLSLSPGERATLSCRASQSVSSYLAWFQQKPGQAPRLLIYDASNRATGIPARFSGSGSGTDFTLTISSLEPEDFAVYYCQQDYEWPITFGGGTKVEIKR | – |
| 2000 | 9.9 | 393 | 10.8 | 6.4 | 0.4 | 17100 | 11 | 0.785 | 116 | 130 | – | – | EOS006162 (antibody, V domains shown) VH: QVQLVQSGAEVKKPGSSVKVSCKASGGTFSSYAISWVRQAPGQGLEWMGGIIPISGTANYAQKFQGRVTITADESTSTAYMELSSLRSEDTAVYYCARTQEYTLFDSWGQGTMVTVSS VL: EIVLTQSPATLSLSPGERATLSCRASQSVSSYLAWFQQKPGQAPRLLIYDASNRATGIPARFSGSGSGTDFTLTISSLEPEDFAVYYCQQDYHWPITFGGGTKVEIK | no binding |
| 322 | 2.3 | 42.8 | 1.1 | 1 | 0.57 | 1650 | 3.2 | 1.31 | – | 8200 | – | – | EOS006170 (antibody, V domains shown) VH: QVQLQESGPGLVKPSGTLSLTCAVSGGSISSSNWWSWVRQPPGKGLEWIGEIYHSGSTNYNPSLKSRVTISVDKSKNQFSLKLSSVTAADTAVYYCARDTKYQAGMDVWGQGTTVTVSS VL: DIQMTQSPSSLSASVGDRVTITCQASQDISNYLNWYQQKPGKAPKLLIYDASNLATGVPSRFSGSGSGTDFTFTISSLQPEDIATYYCQQYVVFPTFGGGTKVEIK | no binding (tested: fold change less than 5) |
| 2060 | 2.1 | 128 | 1.6 | 4.7 | 0.82 | 7220 | 2.2 | 1.57 | – | 10200 | – | 49.9 | EOS006167 (antibody, V domains shown) VH: not shown VL: EIVLTQSPGTLSLSPGERATLSCRASQSVSSSYLAWYQQKPGQAPRLLIYGASSRATGIPDRFSGSGSGTDFTLTISRLEPEDFAVYYCQQYDDVPYTFGGGTKVEIK | no binding (tested: fold change less than 5) |
| 655 | 3 | 3.3 | 1.9 | 1.6 | 0.8 | 194 | 2.3 | 1.99 | – | 2990 | – | 96 | EOS006168 (antibody, V domains shown) VH: not shown VL: EIVLTQSPGTLSLSPGERATLSCRASQSVSSSFLAWYQQKPGQAPRLLIYGASSRATGIPDRFSGSGSGTDFTLTISRLEPEDFAVYYCQQYYSPPITFGGGTKVEIK | no binding (tested: fold change less than 5) |
